The text below walks through data of patent US20240294632A1 (XL PROTEIN, published 2024).

Test [1] deals with T1, PASylated Thymosin alpha 1.
T1 construct: also called PASylated Tα1
T1 chain: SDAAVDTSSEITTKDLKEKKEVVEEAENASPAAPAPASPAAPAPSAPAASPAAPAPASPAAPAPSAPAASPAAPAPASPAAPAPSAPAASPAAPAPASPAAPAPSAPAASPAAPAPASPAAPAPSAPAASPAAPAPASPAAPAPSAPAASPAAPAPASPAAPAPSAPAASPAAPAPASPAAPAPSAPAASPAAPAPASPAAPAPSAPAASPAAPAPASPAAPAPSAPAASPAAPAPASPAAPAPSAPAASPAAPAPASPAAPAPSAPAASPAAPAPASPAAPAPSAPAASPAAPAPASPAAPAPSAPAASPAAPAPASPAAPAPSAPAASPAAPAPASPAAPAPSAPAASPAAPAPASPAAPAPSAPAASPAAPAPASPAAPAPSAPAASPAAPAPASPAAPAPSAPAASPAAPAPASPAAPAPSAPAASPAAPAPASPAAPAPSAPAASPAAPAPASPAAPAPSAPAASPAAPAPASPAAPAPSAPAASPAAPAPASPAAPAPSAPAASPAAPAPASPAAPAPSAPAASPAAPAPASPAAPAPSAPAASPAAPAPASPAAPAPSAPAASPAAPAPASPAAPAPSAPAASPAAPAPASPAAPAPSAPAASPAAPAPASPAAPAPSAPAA
The experiment in a line: sandwich ELISA in diluted rat plasma: MAb 2.1 coated as capture antibody, MAb 1.2-alkaline phosphatase as detection reagent; calibration curve.

The target in a further test is T2, PAS #1(200)-IL1Ra.
T2 construct: PASylated fusion protein produced in E. coli; Biotinylated for the SPR measurements with Fabs
The experiment in a line: SPR, MAb from hybridoma supernatant captured by anti-mouse antibody, antigen as analyte, bivalent analyte model.

In the next test the target is T3, P/A #1 sequence.
T3 construct: in sentences on specificity it stands for P/A #1 polypeptides in general
T3 peptide: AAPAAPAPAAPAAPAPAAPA
The experiment in a line: SPOT peptide array / hybridoma screening.

Test [2] has as its target T4, P/A #1(200)-IL1Ra.
T4 construct: PASylated fusion protein produced in E. coli; Biotinylated for the SPR measurements with Fabs
The experiment in a line: Western blot of the fusion protein after SDS-PAGE; anti-mouse IgG Fc-AP, BCIP/NBT [G].

The target in test [3] is T5, IL1Ra (Kineret/Anakinra) (UniProt P18510 26-177).
T5 construct: Commercial drug product; also called non-PASylated protein version
The experiment in a line: western blot, hybridoma supernatant 1:2000.

In test [4] the target is T6, hu4D5-PAS #1(200).
T6 construct: Detected with anti-human kappa light chain antibody in the capture ELISA
The experiment in a line: MAb capture ELISA, hybridoma supernatant on anti-mouse IgG Fc, antigen titrated.

Test [5] concerns the target T6, hu4D5-PAS #1(200). The experiment in a line: MAb capture ELISA: MAb from hybridoma supernatant captured by anti-mouse IgG Fc, hu4D5-PAS#1(200) titrated (x axis: antigen concentration).
Test [6] deals with T5, IL1Ra (Kineret/Anakinra). The experiment in a line: western blot, hybridoma supernatant 1:2000 or purified MAb 1:200000.
The target in test [7] is T4, P/A #1(200)-IL1Ra. The experiment in a line: SPR, MAb from hybridoma supernatant captured by anti-mouse antibody, antigen as analyte, bivalent analyte model.
Test [8] addresses T7, hu4D5-P/A #1(200).
T7 construct: Detected with anti-human kappa light chain antibody in the capture ELISA
The experiment in a line: MAb capture ELISA, hybridoma supernatant on anti-mouse IgG Fc, antigen titrated.

Test [9] addresses T7, hu4D5-P/A #1(200). The experiment in a line: MAb capture ELISA: MAb from hybridoma supernatant captured by anti-mouse IgG Fc, hu4D5-P/A#1(200) titrated (x axis: antigen concentration).
The target of another test is T8, Pga-APSAAPSAAPSA (N-terminal pyroglutamyl residue (Pga), counted as P1 in the structure).
T8 construct: Peptide ligand co-crystallised with the Fab of MAb 3.1; also called Pga-(APSA)3 peptide; (APSA)3 peptide
T8 peptide: APSAAPSAAPSA
The experiment in a line: co-crystal structure of the recombinant Fab with the peptide.

The target in test [10] is T9, APSA(200)-IL1Ra.
T9 construct: Fusion protein produced in E. coli; Labelled with DIG-NHS in the MAb capture ELISA
The experiment in a line: ELISA, Fab titrated on coated APSA(200)-IL1Ra.

The target in a further test is T10, APSA(200)-TrxA.
T10 construct: Biotinylated and immobilised on a biotin CAPture chip; also called thioredoxinA-APSA(200)
The experiment in a line: SPR, biotinylated antigen on CAPture chip, Fab as analyte, 1:1 model.

Test [11] has as its target T9, APSA(200)-IL1Ra. The experiment in a line: ELISA, antigen coated, Fab titrated.

T5 sequence (P18510 26-177 limits assumed): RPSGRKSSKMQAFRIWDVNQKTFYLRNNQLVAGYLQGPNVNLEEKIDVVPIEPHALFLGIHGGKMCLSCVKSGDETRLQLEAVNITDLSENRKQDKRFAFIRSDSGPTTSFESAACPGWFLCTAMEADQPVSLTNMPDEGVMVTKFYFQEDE
T2 sequence (chain, as listed by the source limits assumed): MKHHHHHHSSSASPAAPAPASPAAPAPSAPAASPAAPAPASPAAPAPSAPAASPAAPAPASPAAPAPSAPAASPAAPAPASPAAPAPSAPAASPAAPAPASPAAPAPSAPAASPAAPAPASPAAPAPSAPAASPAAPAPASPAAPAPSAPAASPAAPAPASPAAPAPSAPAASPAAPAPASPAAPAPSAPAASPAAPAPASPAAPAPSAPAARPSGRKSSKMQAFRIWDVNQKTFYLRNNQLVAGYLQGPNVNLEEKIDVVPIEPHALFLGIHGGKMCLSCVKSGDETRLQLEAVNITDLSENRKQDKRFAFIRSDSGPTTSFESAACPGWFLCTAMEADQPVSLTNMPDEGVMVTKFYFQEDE
T4 sequence (chain, as listed by the source limits assumed): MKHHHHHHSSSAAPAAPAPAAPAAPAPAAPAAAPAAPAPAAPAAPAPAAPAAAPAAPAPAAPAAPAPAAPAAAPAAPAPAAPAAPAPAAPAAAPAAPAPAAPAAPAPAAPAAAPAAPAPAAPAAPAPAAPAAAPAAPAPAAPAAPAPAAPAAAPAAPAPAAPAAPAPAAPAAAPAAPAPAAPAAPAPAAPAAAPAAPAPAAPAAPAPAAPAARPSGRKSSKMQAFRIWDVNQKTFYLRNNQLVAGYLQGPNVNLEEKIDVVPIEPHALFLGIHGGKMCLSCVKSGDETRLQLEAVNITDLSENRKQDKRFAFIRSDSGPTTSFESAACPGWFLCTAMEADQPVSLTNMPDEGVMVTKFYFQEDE

B1: Anti-PA(S) MAb 1.2 (antibody, V domains shown)
VH: QVQLVESGGGLVQPGGSLKLSCAASGFTFSSYGMSWVRQTPDKRLELVATINSNGGSTYYLDSVKGRFTISRDKAKNTLYLQMSSLKSEDTAMYYCVRGGSIYDGYDYAMDYWGQGTSVTVSS
VL: DIVLTQSPASLAVSLGQRATISCRASQSVSTSSYSYMHWFQQKPGQPPKLLIKYASNLESGVPARFSGSGSGTDFTLNIHPVEEEDTATYYCQHSWEIPLTFGAGTKLELKR
notes: Mouse monoclonal IgG from hybridoma (culture supernatant); alkaline phosphatase conjugate in the thymosin sandwich ELISA
As to B1, the binding result is given as “binds” in [1], “no binding” in the test with P/A #1 sequence, “no binding (tested: hybridoma supernatant diluted 1:2000)” with P/A #1(200)-IL1Ra [2] and “no binding” with IL1Ra (Kineret/Anakinra) [3]. The values for the Kd with PAS #1(200)-IL1Ra and in the test with hu4D5-PAS #1(200) [4] were 44 nM and 0.162 nM, respectively. The “EC50 (read off the curve)” value in the test with hu4D5-PAS #1(200) [5] is approximately 0.2 nM.

B2: Anti-PA(S) MAb 2.1 (antibody, V domains shown)
VH: QVTLKESGPGILQPSQTLSLTCSFSGFSLSTYDMGVGWIRQPSGKGLEWLANIWWNDNKYYNSALKSRLTISKDTSNNQVFLKISSVDATDTATYYCAQMRDNYGVWFAFWGQGTLVTVSA
VL: DIVMSQSPSSLAVSVGEKVTMSCKSSQSLFYSNREKNYLAWYQQKPGQSPKLLIYWASTRESGVPDRFTGSGSGTDFTLTISNVKAEDLAVYYCQQYYNYPTFGAGTKLELKR
notes: Mouse monoclonal IgG from hybridoma (supernatant or protein G purified); also called DSM ACC3366
For the molecule B2, the binding result is “binds” in test [1] and “no binding” with IL1Ra (Kineret/Anakinra) [6]. Also, the Kd was found to be 0.429 nM in the test with P/A #1(200)-IL1Ra [7], 1.7 nM with PAS #1(200)-IL1Ra, 0.17 nM with hu4D5-P/A #1(200) [8] and 0.113 nM with hu4D5-PAS #1(200) [4]. Moreover, in the test with hu4D5-P/A #1(200) [9], the “EC50 (read off the curve)” value is approximately 0.08 nM.

B3: Fab fragment of Anti-PA(S) MAb 3.1 (Fab, V domains shown)
VH: QVQLQQSGAELVRPGASVKLSCKALGYIFTDYEMHWVKQTPVHGLEWIGVIHPGSGNTVYNQKFQGKATLTADKSSSTAYMEVSSLTSEDSAVYYCNLWGRWGQGTTLTVSS
VL: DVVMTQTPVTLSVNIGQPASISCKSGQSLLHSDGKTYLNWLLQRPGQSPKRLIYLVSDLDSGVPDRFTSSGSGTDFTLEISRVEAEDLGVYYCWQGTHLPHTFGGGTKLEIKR
notes: also called Anti-PA(S) MAb 3.1 Fab; anti-APSA antibody fragment
Take B3: the binding result with Pga-APSAAPSAAPSA is “binds”. Moreover, the “EC50 (read off the curve)” value with APSA(200)-IL1Ra [10] is approximately 2 nM. In addition, the figures for the Kd with APSA(200)-TrxA and with APSA(200)-IL1Ra [11] were 2.5 nM and 1.9 nM, respectively.
